US12618835B2, “Multiplex microelectrode array for detection of proteases as biomarkers” (Kansas State University Research Foundation, priority 2021, dated 2026)
Where “and” joins values, the source holds several entries; their conditions need not be identical. Equal values may be shown once. Entries after “also recorded” stand apart in the source; their conditions may differ. Where no end group is shown, it is not given here. [ ]: non-standard residue; d: D form. The star is where a group is joined. aminomethylferrocene = [Fe+2].c1cc[c-](CN*)c1.c1cc[cH-]c1; Ava = NCCCCC(=O)O

Key:
cathepsin B [1] = target: T1, cathepsin B (Homo sapiens, UniProt P07858); assay: Electrochemical (AC voltammetry) proteolysis of peptide-Fc substrates on 3x3 Au MEA, Example 1; format: biochemical; parameters: purchased R&D Systems Inc. (Minneapolis, MN); details: for 1/τ AVG: average of 3 channels per peptide, 50 mM MES buffer pH=5.0, FIG. 8; for average values of 1/τ: three peptides on one MEA, 3 channels each, 50 mM MES pH=5.0
Text: N-Fluorenylmethyloxycarbonyl (Fmoc) protected amino acids, amino acid attached 2-chlorotrityl resins, 1-[bis(dimethylamino)methylene]-1H-1,2,3-triazolo[4,5-b]pyridinium 3-oxide hexafluorophosphate (HATU), and 2-(1H-benzotriazol-1-yl)-1,1,3,3-tetramethyluronium hexafluorophosphate (HBTU) were purchased from Chem-Impex International, Inc. (Wood Dale, IL) and AAPPTEC LLC (Louisville, KY). Potassium hexacyanoferrate (II) trihydrate, potassium nitrate, 1-ethyl-3-(3-dimethylaminopropyl)carbodiimide (EDC), N-hydroxysulfosuccinimide (Sulfo-NHS), 6-mercapto-1-hexanol, and 6-mercapto-1-hexanoic acid were obtained from Sigma-Aldrich (St. Louis, MO). Dithiothreitol (DTT), sodium phosphate dibasic heptahydrate (Na2HPO4·7H2O), sodium phosphate monobasic (NaH2PO4) and 2-(4-morpholino)ethanesulfonic acid ([…]) were purchased from Fisher Scientific (Hampton, NH). […] Cathepsin B solutions were activated by incubation in 25 mM MES buffer (pH=5.0) containing 5 mM DTT for 15 min before proteolysis experiments.
Electrochemical measurements were performed using an Ivium n-Stat Potentiostat (Eindhoven, The Netherlands) outfitted with five dual channel modules, allowing up to ten independent working electrodes to function simultaneously with a common reference and counter electrodes. […] In this study, the nine leads from the potentiostat (FIG. 9b) were interfaced with a breakout box, which was then connected to a custom-built electrochemical cell via a ribbon cable (FIG. 9c). The sensor chip consists of nine lithographically patterned Au working microelectrodes placed in the custom-built electrochemical cell (FIG. 9d) and electrical contact was made via pogo pins. All measurements were performed using a common mercury/mercurous sulfate reference electrode (Hg/Hg2SO4, MSE) filled with a saturated solution of K2SO4 (CH Instruments, Austin, TX) and a common Pt wire counter electrode.
Prior to use, the MEAs were sonicated in acetone for 1 minute, subsequently rinsed with methanol and isopropanol for 15 s and then dried by blowing with nitrogen. Next, the electrodes were placed in the experimental cell and electrochemically cleaned by cycling from −0.60 to 0.70 V vs. MSE in 0.10 M phosphate buffer (pH=7.4). For the experiments using an MEA modified with the same peptide-Fc substrate (i.e., H-15) on all nine microelectrodes, the whole chip was incubated in a mixture of 1.0 mM 6-mercapto-1-hexanol and 0.2 mM 6-mercapto-1-hexanoic acid in deionized water for 40 min to form a self-assembled monolayer (SAM). This step passivated the entire Au microelectrode surface while leaving adequate spacing between the exposed carboxyl functionalities. Next, the electrodes were incubated in a solution containing 2.0 mM peptide-Fc substrate (i.e., H-3, H-15, or H-16), 0.20 g/l EDC and 0.20 g/l sulfo-NHS for 2 hours at room temperature so that the peptides were covalently attached to the carboxyl groups of the SAM through the formation of amide bonds. The low ratio of carboxyl to hydroxyl groups at the SAM surface ensured a large separation between the peptide-Fc molecules which was important to reduce the steric hindrance during subsequent proteolysis measurements. Finally, the electrodes were rinsed with deionized water to remove any non-bound peptide-Fc substrate that may be physiosorbed on the surface. For multiplex experiments, the chip was masked with a ˜1.2 mm thick polydimethylsiloxane (PDMS) film punched with a 3×3 array of ˜0.7 mm diameter holes that were aligned on top of each Au microelectrodes. About 100 μl mixed thiol solution (6-mercapto-1-hexanol and 6-mercapto-1-hexanoic acid) as described above was added on the chip surface to fill all nine PDMS holes and was incubated for 40 min. Then, the microelectrodes and wells were rinsed and dried on a hot plate at 35° C. Finally, 0.50 μl of the EDC/sulfo-NHS/peptide-Fc (H-3, H-15, or H-16) reaction mixture was added to each well using a nanoinjector mounted on a x-y-z-micromanipulator and incubated for 2 h. […]

cathepsin B [2] = target: T1, cathepsin B; assay: Screening of peptide-Fc substrates for cathepsin B (electrochemical measurements, fluorogenic assays, HPLC-MS); format: biochemical; details: for proteolysis rate by cathepsin B compared to other candidates: library of nine peptide-Fc substrates
Text: A library of nine peptide substrates was examined initially for proteolysis using cathepsin B (Table S1). […] The order and amino acid sequence of the peptide substrates were designed according to the literature reported sequences with minor modifications. Among the nine peptides, three most reactive peptide substrates, i.e., H-3, H-15, and H-16 (Table 1), were selected for our studies on cathepsin B activity profiling. The peptides were designed based on literature reports and synthesized using a solid-phase microwave peptide synthesizer detailed in the Supporting Information below. For example, peptide H-15, a representative peptide, was made by the coupling of H-Ala-2-chlorotrityl resin with various N-fluorenylmethyloxycarbonyl-amino acids (N-Fmoc-amino acids) sequentially, condensing with the linker N-Boc-NH—(CH2)4—CO2H, cleavage of the peptide from the resin, re-protection of the amino group of linker, bonding with (aminomethyl)ferrocene, and removal of the protecting group.
We have designed and synthesized nine different peptide-Fc substrates containing 6-8 amino acids (listed in Table S1 below) for proteolysis by cathepsin B based on the specific recognition reported in literature and tested the cathepsin B activities on these peptide-Fc substrates by the combination of electrochemical measurements (using Au disk electrodes and VACNF nanoelectrode arrays), fluorogenic assays and HPLC-MS analysis.

cathepsin B [3] = target: T1, cathepsin B; parameters: purchased R&D Systems Inc. (Minneapolis, MN); details: previous finding; cited from earlier work

Row | 1/τ AVG (cathepsin B [1]; 6.0 nM cathepsin B) [s⁻¹] | average values of 1/τ (cathepsin B [1]; 6.0 nM cathepsin B) | average value of 1/τ (cathepsin B [1]; CH 1-6, 6.0 nM cathepsin B, MES buffer pH=5.0) | fitted value of 1/τ (cathepsin B [1]; CH 4, 6.0 nM cathepsin B, 25 mM MES buffer pH=5.0) [s⁻¹] | 1/τ Avg (cathepsin B [1]; average of channels 1-6, H-15 modified Au MEA, 6.0 nM cathepsin B, MES buffer pH=5.0) [s⁻¹] | proteolytic activity by cathepsin B among synthesized peptides (cathepsin B [2]; selected from about 30 synthesized peptides) | Substance | proteolysis rate by cathepsin B compared to other candidates (cathepsin B [2]) | 1/τ (cathepsin B [1]; individual channels 1-6 of H-15 modified Au MEA, 6.0 nM cathepsin B, MES buffer pH=5.0, FIG. 7) | cleavage site by cathepsin B (found previously) (cathepsin B [3])
1 | 8.90 | (8.9±1.1)×10^−4 s^−1 | – | – | – | – | H2N-(CH2)4-CO-Pro-Leu-Ala-Gly-Val-Ala-NH-CH2-Fc ([Ava]PLAGVA-aminomethylferrocene) [Peptide H-16] | most reactive; also recorded: higher proteolysis rates | – | –
2 | 6.79 | (6.8±1.8)×10^−4 s^−1 | (6.63±0.87)×10^−4 s^−1 | 0.000684 | 0.000663 | highest proteolytic activity | H2N-(CH2)4-CO-Pro-Leu-Ala-Phe-Val-Ala-NH-CH2-Fc ([Ava]PLAFVA-aminomethylferrocene) [Peptide H-15] | most reactive; also recorded: higher proteolysis rates | 0.000684 s⁻¹ and 0.000779 s⁻¹ and 0.000645 s⁻¹ and 0.00055 s⁻¹ and 0.000734 s⁻¹ and 0.000588 s⁻¹ | –
3 | 7.36 | (7.4±0.9)×10^−4 s^−1 | – | – | – | – | H2N-(CH2)4-CO-Pro-Leu-Arg-Phe-Gly-Ala-NH-CH2-Fc ([Ava]PLRFGA-aminomethylferrocene) [Peptide H-3] | most reactive; also recorded: higher proteolysis rates | – | between the Gly-Ala residues and between the Phe-Gly residues
